Test results as given in the nanobody polyreactivity screen of Harvey et al. (2022).

assay: yeast display, Sf9 membrane polyspecificity reagent, FACS + sequencing; frameworks hold sequencing errors
Outline: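 In a synthetic yeast display library (Saccharomyces cerevisiae BJ5465), nanobody expression was induced with galactose for 36–48 hours. FACS gates were set low and high (top ~1%) using anti-HA fluorescence for expression and streptavidin fluorescence for binding of the Sf9 membrane reagent. Each polyreactivity label is drawn from the gate of origin.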

Row | Sequence | polyreactivity (PSR sort gate)
1 | QVQLVESGGGLVQAGGSLRLSCAASGSIFGSYTMGWYRQAPGKERELVAAISLGGGSTYYADSVKGRFTISRDNAKNTVYLQMNSLKPEDTAVYYCAAVQIVSGTYDYYWGQGTQVTVSS | low polyreactivity
2 | QVQLVESGGGLVQAGGSLRLSCAASGRILHANAMGWYRQAPGKERELVAAITGRGGSTYYADSVKGRFTISRDNAKITVYLQMNSLKPEDTAVYYCAARVKQAGYRMDYWVQGTQVTVSS | high polyreactivity
3 | QVQLVESGGGLVQAGGSLRLSCAASGSTFRRYAMGSYRQAPGKERELVAAISVSGGRTSYADSVKGRFTISRDNAKNTVYLQMNSLKPEDTAVYYCNADYYKRMDYWGQGTKVTVSS | high polyreactivity
4 | QVQLVESGGGLVQAGGSLRLSCAASGSTFVPNAMGWYRQAPGKEREFVAAIRVSGDNTYYADSVKGRFTISRDNAKNTVYLQMNSLKPEDTAVYYCAATGTVLGSVDYWGQGTQVTVSS | low polyreactivity
5 | QVQLVESGGGLVQAGGSLRLSCTASGRTLYNYTMGWYRQAPGKERELVATINFSGGSTYYADSVKGRFTISRDNAKNTVYLQMNSLKPEDTAVYYCNARGYHYAYKGAYLGDYYWGQGTQVTVSS | low polyreactivity
6 | QVQLVESGGGLVQAGGSLRLSCAASGLTFAQYAMGWYRQAPGKERELVAAITSRGTNTYYADSVKGRFTISRDNAKNTVYLQMNSLKPEDTAVYYCNTYRARLGTTFIDYDYWGQGTQVTVSS | high polyreactivity
7 | QVQLVESGGGLVQAGGSLRLSCAASGRIFLWNAMGWYRPAPGKERELVAGISWRGSSTYYADSVKGRFTISRDNAKNTVYLQMNSLKPEDTAVYYCAARTRGGRGYGMYYWGQGTQVTVSS | high polyreactivity
8 | QVQLVESGGGLVQAGGSLRLSCAASGIIFVVYDMGWYRQAPGKERELVAAINWSGGSTYYADSVKGRFTISRDNAKNTVYLQMNSLKPEDTAVYYCAAESFSDGSPYNYWGQGTQVTVSS | low polyreactivity
9 | QVQLVESGGGLVQAGGSLRLSCAASGRTFKVYAMGWYRQAPWKERDLVAAISFSGGSTYYADSVKGRFTISRDNAKNTDYLQMNSLKPEDTAVYYCAAKRYGEYRARGYYYWGQVTQVTVSS | high polyreactivity
10 | QFHLVDSGGGLVQAGGRLRLSCPASGGICYQYAMGWYRQAPGKEREFVAAISRRGGSTYYADSVKGRFTISRDNAKNTVYLQMNSLKPEDTAVYYCAAAPSTRGGYQQMDSWGQGTQVTVSS | high polyreactivity
11 | QVQLLESGGGLVQAGGSLRLSCAASGSTFDSYEMGWYRQAPGKERELVAGISYSSDRTYYADSVKGRFTISRDNAKNTVYLQMNSLKPEDTAVYYCAKDHTGTVQYPLDYWGQGTQVTVSS | low polyreactivity
12 | QVQLVESGGGLVQAGGSLRLSCAASGYIFDVYDMGWYRQAPGKERELVAAITDYADSVKGRFTISRDNAKNTVYLQMNSLKPEDTAVYYCAADTDVLKGTTGFEYWGQGTQVTVSS | low polyreactivity
13 | QVQLVESGGGLVQAGGSLRLSCAASGYTFTGYAMGGYRQAPGKERELFATITRGGSTYYADSVKGRFTISRDNAKNTVYLPMNSLKPEDTAVYYCATRVQYYVKSTTQYGYGYWGQGTQVTVSS | low polyreactivity
14 | QVQLVESGGGLVQAGGSLRLSCAASGLNFGSNAMGWYRQAPGKERELVAAITWSGGSTYYADSVKGRFTISRDNAKNTVYLQMNSLKPEDTAVYYCAAKRWYRYYWGQGTQVTVSS | high polyreactivity
15 | QVQLVESGGGLVQAGGSLRLSCAASGSTFYLYAMGWYRQAPWKEREFVARITWSGGSTYYADSVKGRFTISRDNAKNTVYLQMNSLKPEDTAVYYCNATKTGPATVRYYYWGQGTQVTVSS | high polyreactivity
16 | QVQLVESGGGLVQARGSLRLICAASGRTFEHNSMGWYRQAPGKERELVARITSGGRTYYADSVKGRFTISRDNAKNTVYLQMNSLKPEDTAVYYCATVGRGYDERHNYWGQGTQVTVSS | high polyreactivity
17 | QVQLVESGGALDQAGGSLRLSCAASGFFRYAMGSYRQAPGKERELVAAITSGGRTNYADSVKGRFTISRDNAKNTVYLQMNSLKPEDTAVYNCAADQGSRSEELDYWGQGTQVTVSS | low polyreactivity
18 | QVQLVESGGGLDQAGGSLRLSCAASGRTFRYYAMGWYRQAPWKESDLVATITGSGGSTYYADSVKGRFTISRDNSKNTVYLQMYSLKPEDTAVYYCNARKVRYPYRWYDYWGQGTQVTVSS | high polyreactivity
19 | QVQLVESGGGLVQAGGSLRLSCDASGGPFYLNAMGWYRPAPGTERELVAGITWGGGRTYYADSVKGLFTISRDNAKNTVYLQMNSLKPEDTAVYYCAAGAWRGPYSGYYYWGQGTQVTVSS | low polyreactivity
20 | QVQLVESGGGLFQAGGSLRLSCAASGFTFTRYAMGWYRQAPGKERELVATITKRGGSTYYADSVKGRFTISRDNAKNTVYLQMNRLKPEDTAVYYCAADGASRALYDYWGQGTQVTVSS | high polyreactivity
21 | QVHLVESGGGLVQARGSLRLSCAASGSIFRNYAMGWYRQAPGKERELLATISGRGGRTYYADSVKGRFTISRDNAKNTVYLQMNSLKPEDTAVYYCAARGTLGKYSTATVYWGKGTQVTVSS | high polyreactivity
22 | QVQLVESCGGLVQAGGSLRLSCAASGHIFFYYTMGWYRQAPGKQRELVAGITIGGSTNYADSVKGRFTISRDNAKNTVYLQMNSLKPEDTAVYYCNVVKYVYIYSYWEYYYWGQGTQVTVSS | low polyreactivity
23 | QVQLVESGGGLVQAGGSLRLSCAASGLTFPSYAMGWYRQAPGKVSELVAAISARGGGTYYADSVKGRFTISRDNAKNTVYLQMNSLKPEDTAVYYCAADPVYAGPGYDYWGQGTQVTVSS | high polyreactivity
24 | QVQLVESGGGLVQAGGSLRLSCAASGFTFRYYAMGWYRQAPGKERELVAAISWSGGSTYYADSVKGRFTISRDNAKNTVYLQMNSLKPEDTAVYYCNAYAYYSHGVTTTYDYWGQGTQVTVSS | high polyreactivity
25 | QVQLVESGGGLVQAGGSLRLSCAASGLTFKSYAMGWNRQAPGKERELVAVISSSGGRTYYADSVKGRFTISRDNAKNTVYLQMNSLKPEDTAVYYCAADGSYGKWGGHAMYYLGQGTQVTVSS | high polyreactivity
26 | QVQLVESGGGLVQAGGSLRLSCAGSGIIFHLYAMGWYRQAPGKERELVAAISWNGSSTYYADSVKGRFTISRDNAKNTVYLQMNSLKPEDTAVYYCAASYGYFEDYGYWGQGTQVTVSS | low polyreactivity
27 | QVQLVESGGGLVQAGGSLRLSCAASGRTFYGYAMGWYRQAPGKEREFVAAINRSGGTTYYADSVKGRFTISRDNAKNTVYLQMNSLKPEDTAVYYCAADYSRIRRWPGYYAYDYWGQGTQVTVSS | high polyreactivity
28 | QVQLVESGGGLVQAGGSLRISCAASGSTIGVNAMGLYRQAPGKEMELVAAISVSGGRTYYADSVKGRFTISRDYAKNTVYLQMNSLKPEDTAVYYCAATTYIWPYDYWGQGTQVNVSS | low polyreactivity
29 | QVQLVESGGGLVQAGGSLRLSCAASGSIFGAYAMGWYRQAPGKERELVAAIDKSTGSTYYADSVKGRFTISRDNAKNTVYLQMNSLKPEDTAVYYCAKDWGVYQYSYDYWGQGTQVTVSS | low polyreactivity
30 | QVQLVESGGGLVQAGGSLRLSCAASGNIFAYYAMGWYRQAPGKEREFVAAIRSSGVSTYYADSVKGRFTISRDNAKNTVYLQMNSLKPEDTAVYYCAADSITGGWLIVSPPYNYTYDYWGQGTQVTVSS | low polyreactivity
